Like-named read-outs stand apart in the source and are kept apart here.

In experiment [1] the target is HLA-A*0101 (human). Nature of the experiment: competition with 125I-labelled standard peptide 944.02 ([..]) for purified HLA-A*0101, gel filtration. On the technique in general: SEC sorts molecules by how far they enter the pores of the column.
Experiment [2] concerns the target HLA-A*0101 (human). Nature of the experiment: competition with 125I-labelled standard peptide for purified HLA-A*0101, gel filtration.
The target of experiment [3] is HLA-A*1101 (human). Nature of the experiment: competition with 125I-labelled standard peptide for purified HLA-A*1101, gel filtration.
Experiment [4] deals with HLA-A*1101 (human). Nature of the experiment: competition with 125I-labelled standard probe peptide for purified HLA-A*1101, gel filtration.
In experiment [5] the target is HLA-A*1101 (purified HLA class I molecule) (human).
The target in another experiment is HLA-B*0702 (human). Nature of the experiment: competition with 125I-labelled standard peptide for purified HLA, gel filtration.
In the next experiment the target is HLA-B*3501 (human). The description is as above.
The next experiment deals with HLA-B*5101 (human). Described as above.
The next experiment concerns the target HLA-B*5301 (human). The description is as above.
The target of a further experiment is HLA-B*5401 (human). Described as above.
In the next experiment the target is HLA-A*0301 (human). Nature of the experiment: competitive inhibition of 125I-labelled standard peptide binding to purified HLA-A*0301, gel filtration. Particulars: remark: other sources report otherwise.
Where [6] appears, read: remark: other sources report otherwise.

Turning to AVCDKCLKFY (modifications not checked) [HPV16 E6 68 …], the binding affinity ratio (IC50 of standard peptide / IC50 of test peptide) in the experiment with HLA-A*0101 (human) [1] was determined as 0.0095.

HGDTPTLHEY (modifications not checked) [… (HPV16 E7, position 2, 10 amino acids)]: the relative binding ratio (IC50 of standard peptide / IC50 of test peptide) stood at 0.003 with HLA-A*0101 (human) [2] (setting [6]) and 0.0001 with HLA-A*1101 (human) [3] (setting [6]).

With NIHPAKDNR (modifications not checked) [HPV18 E1 574 …], the binding affinity ratio (IC50 of standard peptide / IC50 of test peptide) in the experiment with HLA-A*1101 (human) [4] was 0.0002.

As for VCDKCLKFY (modifications not checked) [… (HPV16 E6, position 69, 9 amino acids)], the results for the relative binding ratio (IC50 of standard peptide / IC50 of test peptide) with HLA-A*0101 (human) [2] and in the experiment with HLA-A*1101 (human) [3] were 0.0017 and 0.0002, respectively.

Take QPETTDLY (modifications not checked) [QPETTDLY (HPV16 E7, position 16, 8 amino acids)]: the relative binding ratio (IC50 of standard peptide / IC50 of test peptide) with HLA-A*0101 (human) [2] came to 0.001.

On to NSGQKKAKR (modifications not checked) [HPV18 E1 119 …], for which the binding affinity ratio (IC50 of standard peptide / IC50 of test peptide) with HLA-A*1101 (human) [4] was found to be 0.0002.

Consider LILALLRYK (modifications not checked) [HPV18 E1 281 …], for which the binding affinity ratio (IC50 of standard peptide / IC50 of test peptide) with HLA-A*1101 (human) [4] turned out to be 0.18.

GTTLEQQY (modifications not checked) [GTTLEQQY (HPV16 E6, position 92, 8 amino acids)]: the relative binding ratio (IC50 of standard peptide / IC50 of test peptide) in the experiment with HLA-A*0101 (human) [2] is 0.0006.

In the case of LTEVFEFAFK (modifications not checked) [HPV18 E6 41-50 peptide …], the relative binding ratio (IC50 of standard peptide / IC50 of test peptide) in experiment [5] amounted to 0.036.

Consider EGTGCNGWFY (modifications not checked) [HPV18 E1 10-19 peptide …], for which the relative binding ratio (IC50 of standard peptide / IC50 of test peptide) with HLA-A*1101 (human) [4] amounted to 0.0002.

Regarding GPKATLQDIV (modifications not checked) [HPV18 E7 peptide … (position 3, 10 amino acids)], the binding affinity ratio (IC50 of standard peptide / IC50 of test peptide) with HLA-B*0702 (human), with HLA-B*3501 (human), with HLA-B*5101 (human), with HLA-B*5301 (human) and with HLA-B*5401 (human) was 0.0001 in each case.

For NTGLYNLLIR (modifications not checked) [HPV18 E6 95-104 peptide …], the relative binding ratio (IC50 of standard peptide / IC50 of test peptide) in [5] came out at 0.0013.

Consider CIVYRDGNPY (modifications not checked) [HPV16 E6 58 …], for which the binding affinity ratio (IC50 of standard peptide / IC50 of test peptide) with HLA-A*0101 (human) [1] stood at 0.0015.

Turning to QAEPDRAHY (modifications not checked) [… (HPV16 E7, position 44, 9 amino acids)], the relative binding ratio (IC50 of standard peptide / IC50 of test peptide) worked out at 0.021 with HLA-A*0101 (human) [2] and 0.0002 with HLA-A*1101 (human) [3].

Take GTTLEQQY (modifications not checked) [HPV16 E6 92 GTTLEQQY]: the binding affinity ratio (IC50 of standard peptide / IC50 of test peptide) with HLA-A*0101 (human) [1] was found to be 0.0006.

Turning to LTTNIHPAK (modifications not checked) [HPV18 E1 571 …], the binding affinity ratio (IC50 of standard peptide / IC50 of test peptide) in the experiment with HLA-A*1101 (human) [4] was 0.12.

In the case of DLQPETTDLY (modifications not checked) [HPV16 E7 14 …], the binding affinity ratio (IC50 of standard peptide / IC50 of test peptide) in the experiment with HLA-A*0101 (human) [1] (setting [6]) came to 0.002. Also, the relative binding ratio (IC50 of standard peptide / IC50 of test peptide) (ratio to standard peptide) in the experiment with HLA-A*0301 (human) came out at 0.0002.

Regarding DTPTLHEY (modifications not checked) [HPV16 E7 4 DTPTLHEY], the binding affinity ratio (IC50 of standard peptide / IC50 of test peptide) in the experiment with HLA-A*0101 (human) [1] came to 0.0002.

In the case of DTPTLHEY (modifications not checked) [DTPTLHEY (HPV16 E7, position 4, 8 amino acids)], in the experiment with HLA-A*0101 (human) [2], the relative binding ratio (IC50 of standard peptide / IC50 of test peptide) came to 0.0002.

As to ETTDLYCY (modifications not checked) [ETTDLYCY (HPV16 E7, position 18, 8 amino acids)], the relative binding ratio (IC50 of standard peptide / IC50 of test peptide) is 0.078 in the experiment with HLA-A*0101 (human) [2] (setting [6]) and 0.0001 with HLA-A*1101 (human) [3] (setting [6]).

These data come from patent publication US7026443.
